Like-named read-outs stand apart in the source and are kept apart here.
Assays:
Test in all cases: pull-down
purified GST-PDK1 [1] = biological target: T1, purified GST-PDK1 (UniProt Q15118 29-436)
purified GST-PDK1 [2] = biological target: T1, purified GST-PDK1; remark: listed apart in the source
purified GST-PDP1 Y381F = biological target: T2, purified GST-PDP1 Y381F (UniProt Q9P0J1 72-537, Y381F)
T2 sequence (looked up): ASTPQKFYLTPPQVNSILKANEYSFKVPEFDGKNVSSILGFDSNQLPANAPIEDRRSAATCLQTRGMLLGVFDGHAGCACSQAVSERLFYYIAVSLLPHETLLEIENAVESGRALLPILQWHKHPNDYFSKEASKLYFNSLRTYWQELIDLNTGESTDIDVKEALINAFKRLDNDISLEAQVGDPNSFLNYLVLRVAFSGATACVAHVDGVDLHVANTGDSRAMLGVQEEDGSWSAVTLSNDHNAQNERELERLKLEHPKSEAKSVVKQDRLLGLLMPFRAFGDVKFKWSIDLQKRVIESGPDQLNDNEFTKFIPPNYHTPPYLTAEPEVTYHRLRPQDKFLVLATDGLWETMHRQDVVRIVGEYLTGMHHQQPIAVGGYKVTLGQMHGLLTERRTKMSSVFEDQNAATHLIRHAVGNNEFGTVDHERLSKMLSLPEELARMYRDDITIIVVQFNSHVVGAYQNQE

T1 sequence (Q15118 29-436): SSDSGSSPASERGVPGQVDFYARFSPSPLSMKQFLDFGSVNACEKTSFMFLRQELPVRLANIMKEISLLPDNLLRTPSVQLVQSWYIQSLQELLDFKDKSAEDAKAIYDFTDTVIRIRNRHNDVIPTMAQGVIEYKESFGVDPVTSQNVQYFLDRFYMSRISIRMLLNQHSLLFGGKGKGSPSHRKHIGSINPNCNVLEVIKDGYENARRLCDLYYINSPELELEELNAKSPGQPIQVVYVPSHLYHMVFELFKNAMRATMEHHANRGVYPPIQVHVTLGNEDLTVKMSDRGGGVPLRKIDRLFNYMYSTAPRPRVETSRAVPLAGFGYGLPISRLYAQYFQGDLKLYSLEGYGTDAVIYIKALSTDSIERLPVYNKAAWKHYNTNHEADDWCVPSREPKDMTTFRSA

B1: purified recombinant FLAG-PDHA1 K244R, incubated with NAM+TSA-treated H1299 cell lysates (enzyme, UniProt P08559 30-390, looked up)
chain: FANDATFEIKKCDLHRLEEGPPVTTVLTREDGLKYYRMMQTVRRMELKADQLYKQKIIRGFCHLCDGQEACCVGLEAGINPTDHLITAYRAHGFTFTRGLSVREILAELTGRKGGCAKGKGGSMHMYAKNFYGGNGIVGAQVPLGAGIALACKYNGKDEVCLTLYGDGAANQGQIFEAYNMAALWKLPCIFICENNRYGMGTSVERAAASTDYYRRGDFIPGLRVDGMDILCVREATRFAAAYCRSGKGPILMELQTYRYHGHSMSDPGVSYRTREEIQEVRSKSDPIMLLKDRMVNSNLASVEELKEIDVEVRKEIEDAAQFATADPEPPLEELGYHIYSSDPPFEVRGANQWIKFKSVS
modifications: lysine acetylation by the lysates (K321 is the site that the paper ties to PDK1 binding)
Purified GST-PDK1 [1]
  binding result: binds

B2: purified recombinant FLAG-PDHA1 K321R (enzyme, UniProt P08559 30-390, looked up)
chain: FANDATFEIKKCDLHRLEEGPPVTTVLTREDGLKYYRMMQTVRRMELKADQLYKQKIIRGFCHLCDGQEACCVGLEAGINPTDHLITAYRAHGFTFTRGLSVREILAELTGRKGGCAKGKGGSMHMYAKNFYGGNGIVGAQVPLGAGIALACKYNGKDEVCLTLYGDGAANQGQIFEAYNMAALWKLPCIFICENNRYGMGTSVERAAASTDYYKRGDFIPGLRVDGMDILCVREATRFAAAYCRSGKGPILMELQTYRYHGHSMSDPGVSYRTREEIQEVRSKSDPIMLLRDRMVNSNLASVEELKEIDVEVRKEIEDAAQFATADPEPPLEELGYHIYSSDPPFEVRGANQWIKFKSVS
Purified GST-PDK1 [2]
  binding result: binds

B3: recombinant FLAG-ACAT1 (enzyme, UniProt P24752 34-427, looked up)
chain: VSKPTLKEVVIVSATRTPIGSFLGSLSLLPATKLGSIAIQGAIEKAGIPKEEVKEAYMGNVLQGGEGQAPTRQAVLGAGLPISTPCTTINKVCASGMKAIMMASQSLMCGHQDVMVAGGMESMSNVPYVMNRGSTPYGGVKLEDLIVKDGLTDVYNKIHMGSCAENTAKKLNIARNEQDAYAINSYTRSKAAWEAGKFGNEVIPVTVTVKGQPDVVVKEDEEYKRVDFSKVPKLKTVFQKENGTVTAANASTLNDGAAALVLMTADAAKRLNVTPLARIVAFADAAVEPIDFPIAPVYAASMVLKDVGLKKEDIAMWEVNEAFSLVVLANIKMLEIDPQKVNINGGAVSLGHPIGMSGARIVGHLTHALKQGEYGLASICNGGGGASAMLIQKL
Purified GST-PDP1 Y381F
  binding result: binds
